According to PMC7173960 (eLife, 2020):

B1: SB10 (VHH)
VHH: QVQLQESGGGLVQAGDSLRVSCAASGRTLRNYHVGWFRQAPGKDREFVAAVSWDDSTYYTESVKGRFTISRDNANNTVYLQMNSLKPEDTAVYYCAADRGSVPFYSDFLRGRYEYGGQGTQVTVSS
notes: source: S. cerevisiae, purified from the culture supernatant (IMAC, Ni-NTA)
B2: SB14 (VHH)
VHH: QVQLQQSGGGLVQAGGSLRLSCTASGRTFSTYVMGWFRQAPGKEREFVGAISWSGGSTVYADSVKGRFTISRDDAKNTVYLQMNSLKPEDTAVYYCAADDSSWYLVLDAYEYDYWGQGTQVTVSS
notes: as for B1
B3: SB11 (VHH)
VHH: QVQLQESGGGMVQAGGSLRLSCAASGRTFRGYGMGWWRQAPGQERDIVAWIRWSDSTGFYIDSVKGRFTISSDNAKNTVYLQMNSLKVEDTAVYYCAAARGTTGWGAVEDRYWGQGAQVTVSS
notes: as for B1
B4: SB13 (VHH)
VHH: QVQLQESGGGLVQAGDSLRLSCAVSGRTVSSNVMAWFRQAPGKEREAVAFIDSGSGGWPYYSDSVKGRFTISRDNAKNMVYLQMDSLIPEDTAVYYCAADSAVYSRSSRWWLRASSYSYWGQGTQVTVSS
notes: as for B1
B5: SB9 (VHH)
VHH: QVQLQESGGGLVQPGGSLRLSCAASGFTFGSYDMSWVRQAPGKGPEWVSGINSGAISTYYADSVKGRFTISRDNAKNTLYLQMNSLKPEDTAVYYCAKADLDKMMEMVAGRPFLPHDPNFGSWGQGTQVTVSS
notes: as for B1
B6: SB12 (VHH)
VHH: QVQLQQSGGGLVQAGGSLRLSCAASGRKISSLTIYGMGWFRQAPGKEREFVAAISQAGGTTSYADSIKDRFTISRDNDKNTAYLQMNNLKPEDTAVYYCAADFLPRIISRRYSDYEYWGQGAQVTVSS
notes: as for B1
B7: SBV Gc head domain (SBV-Gc_(head)) (domain or fragment)
chain: INCKNIQSTQLTIEHLSKCMAFYQNKTSSPVVINEIISDASVDEQELIKSLNLNCNVIDRFISESSVIETQVYYEYIKSQLCPLQVHDIFTINSASNIQWKALARSFTLGVCNTNPHKHICRCLESMQMCTSTKTDHAREMSIYYDGHPDRFEHDMKIILNIMRYIVPGLGRVLLDQIKQTKDYQALRHIQGKLSPKSQSNLQLKGFLEFVDFILGANVTIEKTPQTLTTLSLI
notes: not shown: Twin Strep-tag, C-terminal, kept
B8: RV136 (VHH)
VHH: QVQLQESGGGLVQAGGSLRLSCAASGRTFSRNTMGWFRQAPGKEREFVAAITGGGSTYYADSLKGRFTISRDNAKNTLYLQMNSLKPEDTAIYYCAQYKSSIYFIDYYLRIGDNYDYWGQGTQVTVSS
notes: as for B1
B9: RV104 (VHH)
VHH: QVQLQESGGGLVQAGGSLRLSCTASGRTNSNYFMTWFRQAPGKEREFVAIINHITGSTEYVDSVKGRFIISRDNAKNTVYLQMDSLKPEDTAVYYCASGRIYSAIPGLYDYWGQGTRVTVSS
notes: also called VHH RV104; source: S. cerevisiae, purified from the culture supernatant (IMAC, Ni-NTA)
B10: RV148 (VHH)
VHH: QVQLQQSGGGLVQAGDSLRVSCAASGRTFSSYVLAWFRQAPGKEREFVAVVGWTGARKEYTDSVKGRFTISRDNAKNTVYLQMNSLKPEDTAVYYCAAGRYYIADGSLYDFWGQGTQVTVSS
notes: as for B1
B11: RV115 (VHH)
VHH: QVQLQESGGGLVQPGGSLRLSCAVSGSMFSIDAMGWYRQDPGEERELVAAITSGGRTSYADSVKGRFTISRDNANNAVYLQMNNLKPEDTAVYYCNADAVAPFRMTYWGKGTLVTVSS
notes: also called VHH RV115; source: S. cerevisiae, purified from the culture supernatant (IMAC, Ni-NTA)
B12: RV107 (VHH)
VHH: QVQLQESGGGLVQAGGSLRLSCTASGRTFDGVNMAWFRQIPGKEREFVATTLWRGNVPYYTDSVEGRFTISSDNAKNTGYLQMNSLKPEDTAVYYCAARTGSTFLSSALAQSEAVYSIWGQGTQVTVSS
notes: also called VHH RV107; source: S. cerevisiae, purified from the culture supernatant (IMAC, Ni-NTA)
B13: RV150 (VHH)
VHH: QVQLQESGGGLVQAGGSLRLSCAASGRTLSSYAMGWFRQAPGKEREFVGAISWSGPMLYYGDSAKGRFTISRDNAKNTVYLQMNTLKPEDTAVYYCAAANRLTAEGWQQGYNYDYWGQGTQVTVSS
notes: also called VHH RV150; source: S. cerevisiae, purified from the culture supernatant (IMAC, Ni-NTA)
B14: RV145 (VHH)
VHH: QVQLQESGGGLVQAGASLRLSCAASGLTFSSYRMGWFRQAPGKEREFVSAINWSGGNTYYADSLKGRFTISRDNAKNTVYLQMNSLKPEDTAVYYCASQWRLSGVDPLRAHEYEYWGQGTQVTVSS
B15: RV106 (VHH)
VHH: QVQLQESGGGLVQAGGSLRLSCAASGLTFSSYAMGWFRQAPGKEREFVASSSRIEGIIDYADSVKGRFTISRDNAKNTVYLQMDSLKPEDTAVYFCAATRAIIAGRSRSAYDYWGQGTQVTVSS
B16: RV134 (VHH)
VHH: QVQLQESGGGLVQAGGSLRLSCAASGLTFAFYTVGWFRQAPGKEREFVGGIIWAGGRTSYADSVKGRFTISRDNAENTVYLQMNSLRPEDTAVYYCAAKNRLTSTNEYDFWGQGTQVTVSS
B17: RV108 (VHH)
VHH: QVQLQESGGGLVQAGGSLRLSCVASGRTPSRFFMAWFRQSPGKEREFVARINWGGGNTYYADSVKSRFTISMNNARNTAYLQMNNLKPEDTAVYICAANSDLETNVASLYDYWGQGTQVTVSS
B18: RV139 (VHH)
VHH: QVQLQESGGGLVQAGGSLRLSCAASGPTFSRVTTMGWFRQAPGKDREFVGAISWSDGITYYADSVKGRFTISRDNAKNTMFLQMNSLKPEDTAVYYCGAKIHGGSWFPNYEQYEGMYDFWGQGTQVTVSS
B19: RV126 (VHH)
VHH: QVQLQESGGGLVQPGGSLRLSCAASGSIFRFNAMGWYRQAPGNQRDQQRELVAVATNHGTTNYADSVKGRFTISRDNAKNTVALQMNSLKPEDTAVYYCNIRNRLTGDDYWGQGTQVTVSS
B20: RV110 (VHH)
VHH: QVQLQESGGGLVQAGGSLRLSCVASGRSFSTSAMGWFRQTPGKEREFVAAISTSGRPTYYADSVKGRGTISRDNAKATVYLEMNSLKPEDTAAYYCAAGMRPRLTGDYYSTDEYDYWGQGTQVTVSS
B21: RV141 (VHH)
VHH: QVQLQQSGGGLVQAGGSLRLSCAASGRTFSRYRMGWFRQAPGKEREFVAAINWSGGRTYYVDSMEGRFTISRDNAKNTVYLQMNSLKPEDTAVYRCAAQDRLTGNVYYHEEYDYWGQGTQVTVSS
B22: RV124 (VHH)
VHH: QVQLQQSGGGLVQPGGSLRLSCAASGIISSIYAMGWYRQAPGKQRELVATAGRVTNYADSVKDRFTISRDNAKNTVYLQMNSLKPEDTAVYYCNARNRLTDDNYWGQGTQVTVSS
B23: RV152 (VHH)
VHH: QVQLQESGGGLVQAGGSLRLSCAASGRTASSYATGWFRQAPGKEREFVAAIMWSASITHYTDSVKGRFTISRDNAKNTVYLQMNSLKPEDTAVYYCAASKGIIATQAISAYDYWGQGTQVTVSS

Target: B7
Test: ELISA; competition ELISA: antigen on Strep-Tactin microplates; competing VHH at 11.11 µg/ml, 1 hr RT, then HRP-conjugated analyte VHH, 1 hr RT; competition as percentage of blocking, above 50% counted as efficient
Conditions: both partners purified

| Binder | binding result |
| --- | --- |
| B1 | binds |
| B2 | binds |
| B3 | binds |
| B4 | binds |
| B5 | binds |
| B6 | binds |

Target: T1, SB10-ELP2ABD-SB10 (Lama glama)
T1 construct: also called bivalent ELP-based VHH complex; copies: + +
Test: ELISA; […] (25 mM Tris-HCl, 2 mM EDTA, 140 mM NaCl, pH 7.6, […]
Conditions: both partners purified

| Binder | binding result |
| --- | --- |
| B7 | binds |

Target: RVFV-Gn subdomain B (Rift valley fever virus (RVFV).)
Test: ELISA
Conditions: both partners purified

| Binder | binding result |
| --- | --- |
| B8 | binds |
| B9 | binds |
| B10 | binds |

Target: T2, RVFV Gn ectodomain (RVFV-Gn_(ecto)) (Rift Valley fever virus, Clone 13, UniProt A2T080)
Test: ELISA
Conditions: both partners purified

| Binder | binding result |
| --- | --- |
| B11 | binds |
| B12 | binds |
| B8 | binds |
| B9 | binds |
| B10 | binds |

Target: RVFV-Gn head domain (Rift Valley fever virus, Clone 13, UniProt A2T080)
Test: ELISA
Conditions: both partners purified

| Binder | binding result |
| --- | --- |
| B11 | binds |
| B12 | binds |
| B8 | binds |
| B9 | binds |
| B10 | binds |
| B13 | binds |

Target: T2, RVFV Gn ectodomain (RVFV-Gn_(ecto))
Test: not given
Conditions: not given

| Binder | binding result |
| --- | --- |
| B14 | binds |
| B15 | binds |
| B16 | binds |
| B17 | binds |
| B18 | binds |
| B19 | binds |
| B20 | binds |
| B21 | binds |
| B22 | binds |
| B23 | binds |
